Test results: article PMC3924271
Several values for one entry are separate records, joined by “and”; a condition that tells them apart may be missing. Equal entries are not always repeated.

How the values were obtained:
[1] = target: Rabbit skeletal muscle actin, monomeric (G-actin) (rabbit) (UniProt P68135); experiment: SPR
[2] = target: Rabbit skeletal muscle actin, monomeric (G-actin) (rabbit) (UniProt P68135); experiment: cross-linking
[3] = target: Rabbit skeletal muscle actin, filamentous (F-actin) (rabbit) (UniProt P68135)

| Substance | Kd [1] [µM] | kon [1] [M⁻¹ s⁻¹] | percent of actin and PfADF1 linked by EDC [2] | filament pitch by negative-stain TEM, similar concentration of PfADF1 [3] [nm] |
| --- | --- | --- | --- | --- |
| PfADF1.K72A (natural protein) | 33 | 64.2 | – | – |
| Plasmodium falciparum actin depolymerizing factor 1 (PfADF1), wild type (natural protein) | 3.5 | 95.9 | 10% and 25% | 39.4 |
